In patent publication US9518268B2, “Drought tolerant transgenic plants and method of making same” (PURDUE RESEARCH FOUNDATION, priority 2013, dated 2016):
Read-outs that look alike come from different tables or passages of the source.

T1: ABI1 (Arabidopsis thaliana, UniProt P49597+Q8H1R0)
T1 sequence (P49597 1-434): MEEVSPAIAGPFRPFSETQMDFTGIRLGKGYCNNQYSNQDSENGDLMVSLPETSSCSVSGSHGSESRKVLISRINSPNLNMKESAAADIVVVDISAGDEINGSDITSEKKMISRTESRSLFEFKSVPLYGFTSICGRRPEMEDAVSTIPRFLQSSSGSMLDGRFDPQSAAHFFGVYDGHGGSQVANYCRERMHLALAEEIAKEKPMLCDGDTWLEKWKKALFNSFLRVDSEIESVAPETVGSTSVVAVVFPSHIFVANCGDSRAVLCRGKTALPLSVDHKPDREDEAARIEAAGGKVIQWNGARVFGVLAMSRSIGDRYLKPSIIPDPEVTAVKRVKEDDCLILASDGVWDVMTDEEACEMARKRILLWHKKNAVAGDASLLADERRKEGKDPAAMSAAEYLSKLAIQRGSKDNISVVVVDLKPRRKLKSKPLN
T1 sequence (Q8H1R0 1-183): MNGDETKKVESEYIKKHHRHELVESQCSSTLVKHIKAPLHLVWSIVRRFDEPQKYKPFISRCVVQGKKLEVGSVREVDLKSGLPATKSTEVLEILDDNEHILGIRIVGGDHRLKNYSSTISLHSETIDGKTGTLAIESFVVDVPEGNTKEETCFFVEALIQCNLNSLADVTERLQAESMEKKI


Experiments:
ABI1 [1] = assay: Phosphatase activity assay (pNPP) with purified PP2Cs and PYLs; assay type: biochemical, Arabidopsis thaliana; settings: in the presence of 10 μM ABA; ABI1 and PYLs 0.3 μM
Description: The inhibition by PYL13 is ABA-independent, whereas the inhibition by PYR1 and PYL2 is ABA-induced (FIG. 4B). […] The phosphatase activities of PP2CA, ABI1, and ABI2 were measured in the absence or presence of ABA (1.25 μM), and with or without PYLs. The concentration of PP2Cs and PYLs was 0.3 μM. The A405 value of reaction without PP2C was set as 0% and that of the reaction with PP2C but without ABA and PYLs was set as 100%. Error bars indicate s.e.m. (n=6 for PP2CA and ABI2, and n=3 for ABI1).
To test the functional significance of potential heterodimer formation between PYL13 and other PYLs, the abilities of PYL1 and PYL2 and the protein complexes PYL13-PYL1 and PYL13-PYL2 to inhibit the phosphatase activity of ABI1 were compared using purified recombinant proteins and the synthetic phosphatase substrate pNPP. […] The phosphatase activity of ABI1 was measured (using pNPP) in the absence or presence of 10 μM ABA, with or without PYLs, and with PYL13-PYL dimers. The concentration of ABI1 and PYLs was 0.3 μM. The A405 value of reaction without ABI1 was set as 0% and that of the reaction with ABI1 but without ABA and PYLs was set as 100%. Error bars indicate s.e.m. (n=6). In the presence of 10 μM ABA, ABI1 phosphatase activity was reduced to 67±6% by PYL1 but only to 88±8% by PYL13-PYL1. In the presence of 10 μM ABA, ABI1 phosphatase activity was reduced to 50±3% by PYL2 but only to 78±10% by PYL13-PYL2.
Phosphatase activity was measured using the colorimetric substrate p-nitrophenyl phosphate (pNPP, SIGMA). Reactions were performed in a reaction buffer containing 50 mM Tris-HCl, pH 7.5, 25 mM Mg(OAc)2, 2 mM MnCl2, 0.5 mM EGTA, 0.5% β-mercaptoethanol, and 0.5% BSA. ABA and PYLs were added as indicated. The concentration of PP2Cs and PYLs was 0.3 μM. Reactions were initiated by the addition of pNPP to a final concentration of 50 mM. The hydrolysis of pNPP was measured by following the absorbance at 405 nm (A405). Because His-PYL13 is difficult to purify, is prone to degradation, and rapidly loses activity, newly purified PYL13 was used for the phosphatase activity assay.

ABI1 [2] = target: T1, ABI1; settings: read-out: dissociation constant (Kd) of PYL10-ABI1 interaction, cited from earlier work

| Molecule | ABI1 phosphatase activity reduced to (ABI1 [1]) [%] | Kd (ABI1 [2]; with ABA) [nM] | Kd (ABI1 [2]; without ABA) [nM] |
| --- | --- | --- | --- |
| PYL1: Arabidopsis thaliana PYL family ABA receptor protein PYL1, AT5G46790 | 67±6 |  |  |
| PYL13-PYL1: protein complex (heterodimer) of purified recombinant PYL13 and PYL1 | 88±8 |  |  |
| PYL13-PYL2: protein complex (heterodimer) of purified recombinant PYL13 and PYL2 | 78±10 |  |  |
| PYL10: Arabidopsis thaliana PYL family protein PYL10, AT4G27920 (protein, listed as Arabidopsis thaliana) MNGDETKKVESEYIKKHHRHELVESQCSSTLVKHIKAPLHLVWSIVRRFDEPQKYKPFISRCVVQGKKLEVGSVREVDLKSGLPATKSTEVLEILDDNEHILGIRIVGGDHRLKNYSSTISLHSETIDGKTGTLAIESFVVDVPEGNTKEETCFFVEALIQCNLNSLADVTERLQAESMEKKI |  | 20 | 1200 |
